# Data: publication doi:10.1101/398008
# B1: 34-mer (ssRNA)
# RNA: AACACAAUUUUGGAGGAACUACAGAAUGCGGCUA
# Target: IMP3 KH1-2 WT (human, UniProt O00425 192-355)
# Assay: ITC
# Sequence of IMP3 KH1-2 WT (O00425 192-355): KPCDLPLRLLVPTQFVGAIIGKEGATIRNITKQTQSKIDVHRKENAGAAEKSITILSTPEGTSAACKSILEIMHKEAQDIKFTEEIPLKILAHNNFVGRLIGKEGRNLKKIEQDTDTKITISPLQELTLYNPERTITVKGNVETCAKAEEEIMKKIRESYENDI
binder,measurement,value
B1,binding signal,~10 fold higher affinity than 7-mer RNAs
